Measurements: the supplement of paper PMC9170038

Tested on: K4 kissing-loop RNA reporter
Assay: apparent KD of K4 kissing-loop reporter; higher = weaker reporter binding
Conditions: Eterna round: R107; input ligand: FMN 200 uM
Procedure: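 RNA-MaP round R107: designed RNA switches with theophylline, tryptophan, arginine or FMN aptamers are transcribed on-chip within common flanks. They are titrated with a labelled K4 kissing-loop RNA reporter in RNA-MaP buffer (100 mM Tris pH 7.5, 80 mM KCl, 4 mM MgCl2), without ligand or with the indicated ligand. Median apparent KD per design.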
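Also: bound reporter read as fluorescence of individual clusters on recovered sequencing chips by microscopy, with normalized cluster intensities fitted with a binding model.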

| Sequence | apparent KD of K4 kissing-loop reporter |
| --- | --- |
| UUCUAAAUGUCUGAUACCAGAGAAAAUAUAUGUAGUGAUGUUAUAUACAAAUUUAAUAAGCUCCCUUGGCAGCAGUAUGAAUUUU [AstrosExc-TheB#13] | 705 nM |
| AGCCGAAAGGCGAGUGCUGUCGCUCCGGAAGGAGCGCAGGAAACUGCAGGUAGGUCGCCGGAGUGAUGUUUUGGUGCAGCACUCA [Omei KL Arginine A Exc B v7] | 163 nM |
| UCCUGCAAUCUGCCACGAAAGUGGAUUGAUACCAGAGUCGAAAGACUCCCUUGGCAGCGAGUGAUGUUCGUUGCAGGUAAAUAAA [MatMod 7 - Jieux - Exclusion - Theophylline A] | 181 nM |
| AUUCGUUUAUGUGAUACCAGACUUUGCAGUGAUGUUGCAUUAAUUUUUGAUUAUUAGUUUGUCCCUUGGCAGCACUAUUUAUUUA [JR_SSTheophyB_Sub004] | 40.2 nM |
| UCGAACGAUGGAAGGAGCGCUCGUCAGUCCUGCGAGUGAUGUUCGUGGGUAAAUAGUCGCGAGCAGGUAGGUCGCCAUCUUGAGC [Indiermaar] | 130 nM |
| UUCAGGUGUUCGGCCGCCACUCCAGUGAUGUUGGAGUGGCUUCACAAGGGCCAGGACAAUGUAAGGAGGACCGGGAAUAUCGCAG [Quonerar] | 127 nM |
| CCUAUCUCAUACGAUACCAGUCAAAAUAUAAUUAACCAGUGAUGUUGGAUUUACCAAGGAGACCCUUGGCAGCGUAUGGGAUAGG [Ex Theophylline B K4 18] | 387 nM |
| UCCUGCAAUCCGCCACGAAAGUGGAUGGAUACCAGAGUCGAAAGACUCCCUUGGCAGCCAGUGAUGUUGGAAGCAGGUAAAUAAA | 819 nM |
| AAUUUAUGAUCUGAUACCAGACUUUAUCUUGUUUAUAAGUCAAGUGAUGUUUGACUAUUAGUCCCUUGGCAGCAGUAUUGUUUAA [#17 K4 Theophylline B Same State] | 243 nM |
| GGAUAGGACUGAGGAUAUGGGCUAGGCAAGAAUAACUUGUCUAGCAAAUCCAUGAGGAGUGAUGUUCCAGAAGGCGGUCCUAUCG [FmnBX 1 U10+G76] | 601 nM |
| UAGUCAUACAGAGGAUAUCGUAUGAGUGAUGUUCAUAUGCGUACAUCAACUUGAUGUACACCUAGACGAGAAGGCUGUAUGACUA [FMB B SS t6a] | 172 nM |
| UGAUAGGACAGAAGGAGCGGAAGUGAUGUUUCCAAAAGGAGAGGUCGACAAAGUCGACCCUUCCAGGUAGGUCGCUGUCCUAUCU [ArgBX 10 #Palindromic #SwitchBubble #StaticStem] | 95.3 nM |
| GCGUGCCAUGCAGGAUAUAGUUGUUCGAGUGAUGUUCGAGCCUUGCUAAGUUCGGAGCAUCAGCUUCUAGAAGGGCAUGGCACGC | 156 nM |
| UUCUGCAUCUCGGCCGCCACUCACUAGUGAUGUUAGUAAGGAGCGACUAGAAAAGUCCAGUUAAUGAGGACCGGGAGAAGCUCUU [Exclusion Tryptophan B GF 1] | 281 nM |
| AGGGCUGAGAGCGAUACCAGCGGUAACUGUAUGGUCCAAUAGAGUGAUGUUUUAUAGAGCCGCCCUUGGCAGCGCAAUCUAUUAG [XTheo-B5] | 245 nM |
| AUCUUGUUUGGAGGAUAUUCUUUAUUCGACAUAACCUUCUAUAAGGUGCAGUGAUGUUGCAAUAUAGGAGAAGGUCGAGUGAGAU [Exclusion FMN B GF 17] | 239 nM |
| UAAGAAUAAGUAGCAGUGAUGUUGCUACUGCGAGGACCGGUACGGCCGCCACUCGAGUCCUCGAAGCGUCACUGAACGAGGAAUA [whbob_SS_Tryp_A_m13] | 319 nM |
| UGUCAUUGGUCUGAUACCAGAAGAAAUCUGGAGUGAUGUUCCAAGUACGACAAAAGUCGCUUCCCUUGGCAGCAGACCGAUGACU [TheoBS 21 #SwitchBubble 13 #StaticStem] | 705 nM |
| GCUAGGCAUGCAGGAUAUCGUGGAGUGAUGUUCCGUUGGCUGCUAGCGGAAAACGCUAGCAGCCUACGAGAAGGGCAUGCCUAGC | 192 nM |
| UAACUUGCAGUGAUGUUGCAAGAACUGGAUACCAGCAUGGAAACAUGCCCUUGGCAGCCAGAAGCUGGCUGCUUGUAAUGUCAGC [Design6] | 162 nM |
| CCUUCUCUUGGUAGUGAUGUUAUCAAGGACAAGGAUAUCAUCUCAAUGAGAAGGUGUCCUUGAUAACAUGGAGGUCUGAAACAGA [Omei KL FMN A Exc C v8] | 65.5 nM |

| Sequence | apparent KD of K4 kissing-loop reporter |
| --- | --- |
| CGCCGCAAGGCGAGCGCUCCCACUCCGGAAGGAGCGCCCGCAAGGGCAGGUAGGUCGCCGGAGUGAUGUUCCGGUGGAGGGCUCG [#2 Exclusion - Arginine A Attempt #15 (Inspired by Omei)] | 395 nM |
| UGUCAUUGGUCGGCCGCCACUUCAUAAAGAGUGAUGUUCUAAAAGACGGAUCGAAAGAUCUGUCGAAGGACCGGGAUCGAUGACU [FiskerMod 11 - Jieux - Same State - Tryptophan B] | 1200 nM |
| AAAUUGUUUAGAGGAUAUUCUUUAUUCGACAUAACCUUCUAUAAGGUGCAGUGAUGUUGCAAUAUAGGAGAAGGCUGAGCGAUAA [Exclusion FMN B Gf 14] | 311 nM |
| CGCAGUGAUGUUGCGAGUAGCUACAGGGAAGGAGCGUGCUAGAGCACAGGUAGGUCGCCCACGCAGUGAUGUUGUGUCAAAGGGU [Exclusion Arginine A GF 11] | 167 nM |
| UCUGCUGUAUAUGAUACCAGCAGUGAGAGACCAGAAGUAUAGUGAUGUUAUAUGAGAGAAUGCCCUUGGCAGCGUGUGCGGGUGG [SSTheophylB.Z] | 85.4 nM |
| AGACCUCAGUGAUGUUGAGGUAACACUGAUACCAGCGACUUGAUUCGCCCUUGGCAGCAGUCCACCGAGGUAUCUGAUCAGGUCA [#25 K4 Theophylline A Exclusion] | 159 nM |
| GCGCGCGGCGGAGGAUAUAGCAGGUGAUCCGAGAAAGUGAGUGAUGUUUACGGAGAUGAUGAUAUGUUAGAAGGCCGCCGCGCGC [abcdefghijklmnopqrstuv] | 515 nM |
| GCAAAACUCAGUGAUGUUGAGAUAUCGGAAGGAGCGCGUGAAAACGCAGGUAGGUCGCCGAUUCAAUGAGUUUCUCGUUGUUUGC [Arginine A K4 20] | 248 nM |
| ACCCGGGCCCGAAAGGGCCCGGGAAGAGAUACCAGCAGCGAAAGCUGCCCUUGGCAGCUCACUUAGUGAUGUUGAGUAUAGGGUA [#22 K4 Theophylline A Same State] | 1100 nM |
| UGUACCGAGUCAGGAUAUGGCGUCGAAAGACGAAACCAGUGAUGUUGGAAUCGAUCGAAAGAUCGUCCAGAAGGGACUUGGUACU [FmnBS 21 #SwitchBubble #StaticStem #DoubleMagnetSystem] | 204 nM |
| AAACAUAAGUCUGAUACCAGCCUGGGAGAAGUGAUGUUUCUCGGUGCAUAACGCCUAUAAGGCCCUUGGCAGCAGCAUGCGCUUC [theeternabot_sameState_KL_Theo_B_10] | 547 nM |
| UAUUCUGUUCGAAAGAACGGAAUUUCGGAAGGAGCGCGAGAAAUCGCAGGUAGGUCGCCGAAAUUAUUAGGUAGUGAUGUUACCU [Arginine A K4 6] | 125 nM |
| AUUAAUUUCAGAGGAUAUGCUUUAUUAUUAUUUUUAAAUAAUAAAUGCAGUGAUGUUGCUUAUUAUGCAGAAGGCUGAUUUAUAA [JR_SSFMNB_Sub014] | 119 nM |
| UUUGCAAAGUCGGCCGCCACUCCGGGCCCUAUAAAUGGGCGCAGUGAUGUUGCGGCUAGGCCUCUGAGGACCGGGACUUUGUAAA [Inusleve] | 151 nM |
| GCCUGUGCACGAAGGAGCGCCGUGACAGGUUACUGCCUUGGGCAGUGAUGUUGCUCAAUCUGGCAGGUAGGUCGCGUGCACAGGC | 132 nM |
| GCCUUUGUACAGUCCGUUUGUCAUGUGGAUACCAGCAGGAUAGCUUGCCCUUGGCAGCCAUCCAUUUAAUGUAGUGAUGUUACGC [theeternabot_exclusion_KL_Theo_A_13] | 398 nM |
| AUUUAGACGAGUGAUGUUCGUGUUAUUACAGAGGAUAUGCGUAAUUGCAGAAGGCUGUAUUUAUAUAUGUUAUGUAAUUUUAAAA [JR_ExcFMNA_Sub007] | 89.5 nM |
| CCGGCCCGGCCGGAUACCAGUGCGCCGCUGUGAACUGCGGGCCCAGAGUGAUGUUCGGGACACCCUUGGCAGCCGCCUGGGUCGC [#2 Same State - Theophylline B Attempt #26 (HarryS)] | 358 nM |
| GACUCAUGUAGAAGGAGCGUCAGAAGUUAUAGACAUGAGUGAUGUUCAUGUUAGCUGAUUUGACAGGUAGGUCGCUACAGCAGGA [KL-SSArg B16 #analogue] | 126 nM |
| UGGCAAGUGAUGUUUGCGUUUCCGCAGGAUACCAGUCUGUCUUGAGACCCUUGGCAGCCUGGGUACAGUCCAAGCGGUCACACGA [theeternabot_exclusion_KL_Theo_A_38] | 371 nM |
| UGGAGUUGACGAAAAGUCAACUCCUGAGAAGGAGCGGACGAAAGUCCAGGUAGGUCGCUCACUACCAGUGAUGUUGGUACUGAAA | 187 nM |

Same assay, conditions: Eterna round: R107; input ligand: arginine 13.2 mM

| Sequence | apparent KD of K4 kissing-loop reporter |
| --- | --- |
| UUCUAAAUGUCUGAUACCAGAGAAAAUAUAUGUAGUGAUGUUAUAUACAAAUUUAAUAAGCUCCCUUGGCAGCAGUAUGAAUUUU [AstrosExc-TheB#13] | 744 nM |
| AGCCGAAAGGCGAGUGCUGUCGCUCCGGAAGGAGCGCAGGAAACUGCAGGUAGGUCGCCGGAGUGAUGUUUUGGUGCAGCACUCA [Omei KL Arginine A Exc B v7] | 218 nM |
| UCCUGCAAUCUGCCACGAAAGUGGAUUGAUACCAGAGUCGAAAGACUCCCUUGGCAGCGAGUGAUGUUCGUUGCAGGUAAAUAAA [MatMod 7 - Jieux - Exclusion - Theophylline A] | 178 nM |
| AUUCGUUUAUGUGAUACCAGACUUUGCAGUGAUGUUGCAUUAAUUUUUGAUUAUUAGUUUGUCCCUUGGCAGCACUAUUUAUUUA [JR_SSTheophyB_Sub004] | 81.5 nM |
| UCGAACGAUGGAAGGAGCGCUCGUCAGUCCUGCGAGUGAUGUUCGUGGGUAAAUAGUCGCGAGCAGGUAGGUCGCCAUCUUGAGC [Indiermaar] | 120 nM |
| UUCAGGUGUUCGGCCGCCACUCCAGUGAUGUUGGAGUGGCUUCACAAGGGCCAGGACAAUGUAAGGAGGACCGGGAAUAUCGCAG [Quonerar] | 116 nM |
| CCUAUCUCAUACGAUACCAGUCAAAAUAUAAUUAACCAGUGAUGUUGGAUUUACCAAGGAGACCCUUGGCAGCGUAUGGGAUAGG [Ex Theophylline B K4 18] | 412 nM |
| UCCUGCAAUCCGCCACGAAAGUGGAUGGAUACCAGAGUCGAAAGACUCCCUUGGCAGCCAGUGAUGUUGGAAGCAGGUAAAUAAA | 645 nM |
| AAUUUAUGAUCUGAUACCAGACUUUAUCUUGUUUAUAAGUCAAGUGAUGUUUGACUAUUAGUCCCUUGGCAGCAGUAUUGUUUAA [#17 K4 Theophylline B Same State] | 268 nM |
| GGAUAGGACUGAGGAUAUGGGCUAGGCAAGAAUAACUUGUCUAGCAAAUCCAUGAGGAGUGAUGUUCCAGAAGGCGGUCCUAUCG [FmnBX 1 U10+G76] | 127 nM |
